Experimental data from the supplement of paper PMC10567573.

B1: SASS6 (parent)
chain: QKELQDVGQSLRIKEQEVCKLQEQ
B2: SMG5 (parent)
chain: TRKLSPGKKRCKDIKRLLVNFMYL
B3: HDAC6 (parent)
chain: ACAQLATGAACRLVEAVLSGEVLN

Variants of: B1
Assay: protein stability index of a GFP-peptide fusion (GPS, HEK-293T) (PSI 1-6); higher = more stable
Conditions: c terminus: a fixed tail appended
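Further: lentivirally expressed fusions sorted by FACS into six bins by GFP to DsRed ratio, PSI derived from sequencing read proportions per bin multiplied by bin number.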

First: V18S
Second: V18A
The protein stability index of the first is higher: 5.35 for the first, 4.16 for the second.

Compared with V18Q, Q9R is lower in protein stability index: 5.54 for the first, 5.1 for the second.

Going from Q9G to Q9T, the protein stability index rises from 5.02 to 5.23.

Going from G8F to G8K, the protein stability index rises from 4.07 to 5.2.

Compared with G8T, G8L is lower in protein stability index: 5.13 for the first, 3.83 for the second.

First: G8H
Second: Q1H
The protein stability index of the first is lower: 5 for the first, 5.51 for the second.

Going from Q1V to Q1Y, the protein stability index falls from 4.88 to 4.78.

First: I13L
Second: I13D
The protein stability index of the first is lower: 5.57 for the first, 5.72 for the second.

First: K20S
Second: K20T
The protein stability index of the first is higher: 5.55 for the first, 5.09 for the second.

First: L4K
Second: L4T
The protein stability index of the first is lower: 4.87 for the first, 5.23 for the second.

Compared with L4R, L4C is lower in protein stability index: 4.96 for the first, 4.06 for the second.

Compared with E15V, E15N is lower in protein stability index: 3.54 for the first, 3.15 for the second.

Compared with E15P, E15R is lower in protein stability index: 4.66 for the first, 4.21 for the second.

Compared with V7R, V7A is lower in protein stability index: 5.39 for the first, 5.19 for the second.

First: V7E
Second: C19A
The protein stability index of the first is higher: 5.11 for the first, 4.79 for the second.

Compared with C19V, C19W is lower in protein stability index: 5.25 for the first, 4.59 for the second.

First: D6F
Second: D6N
The protein stability index of the first is lower: 3.81 for the first, 4.9 for the second.

Compared with D6K, D6G is lower in protein stability index: 5.23 for the first, 5 for the second.

Compared with Q24F, Q24E is higher in protein stability index: 4.44 for the first, 5.77 for the second.

Compared with Q24V, Q24K is higher in protein stability index: 4.92 for the first, 5.27 for the second.

Compared with E17P, E17N is lower in protein stability index: 4.55 for the first, 4.33 for the second.

Compared with E17A, E17M is higher in protein stability index: 4.66 for the first, 4.71 for the second.

First: E17T
Second: E17R
The protein stability index of the first is higher: 4.95 for the first, 4.54 for the second.

Compared with K14A, K14R is higher in protein stability index: 5.04 for the first, 5.19 for the second.

Going from K14F to K14M, the protein stability index rises from 4.38 to 4.47.

Compared with K14D, K14Q is lower in protein stability index: 5.63 for the first, 4.9 for the second.

Going from K14H to Q16A, the protein stability index rises from 4.78 to 5.12.

Compared with Q16N, R12F is lower in protein stability index: 5.13 for the first, 5.02 for the second.

Going from R12S to R12W, the protein stability index falls from 5.34 to 4.84.

First: R12Q
Second: Q22W
The protein stability index of the first is higher: 5.75 for the first, 4.83 for the second.

Going from Q22K to Q22L, the protein stability index falls from 5.25 to 4.44.

Going from Q22F to S10A, the protein stability index rises from 4.5 to 5.

Going from S10W to S10Q, the protein stability index rises from 2.66 to 5.31.

Going from S10P to S10F, the protein stability index rises from 4.37 to 4.91.

First: S10I
Second: E3Y
The protein stability index of the first is lower: 3.83 for the first, 4.4 for the second.

Compared with E3M, E3L is higher in protein stability index: 4.02 for the first, 4.92 for the second.

Going from E3A to E3G, the protein stability index falls from 4.92 to 4.68.

First: E3I
Second: L21S
The protein stability index of the first is lower: 4.37 for the first, 5.27 for the second.

First: L21Y
Second: L21M
The protein stability index of the first is higher: 5.38 for the first, 5.03 for the second.

Going from L21W to L11M, the protein stability index rises from 4.92 to 5.6.

Going from L11I to L11K, the protein stability index falls from 5.39 to 5.12.

First: L11H
Second: E23Q
The protein stability index of the first is higher: 5.36 for the first, 4.71 for the second.

First: E23G
Second: E23T
The protein stability index of the first is higher: 5.58 for the first, 4.99 for the second.

First: K2D
Second: K2T
The protein stability index of the first is lower: 5.26 for the first, 5.34 for the second.

Going from K2P to K2A, the protein stability index rises from 4.2 to 4.58.

Compared with K2F, K2H is higher in protein stability index: 4.02 for the first, 5.46 for the second.

Going from Q5H to Q5I, the protein stability index rises from 4.91 to 5.02.

First: Q5D
Second: Q5K
The protein stability index of the first is lower: 5.37 for the first, 5.7 for the second.

First: Q5W
Second: Q5F
The protein stability index of the first is higher: 4.79 for the first, 4.27 for the second.

Variants of: B2
Assay: as above
Conditions: c terminus: a fixed tail appended

First: F21D
Second: F21T
The protein stability index of the first is higher: 2.37 for the first, 1.99 for the second.

First: F21Q
Second: F21R
The protein stability index of the first is lower: 1.71 for the first, 1.88 for the second.

Going from M22S to M22G, the protein stability index rises from 1.39 to 2.04.

Compared with K15E, K15V is higher in protein stability index: 3.46 for the first, 4.58 for the second.

Going from N20W to I14N, the protein stability index rises from 1.09 to 1.45.

Compared with I14T, R16E is higher in protein stability index: 2.05 for the first, 2.42 for the second.

Going from R16L to R16T, the protein stability index rises from 1.66 to 2.9.

Going from S5T to S5D, the protein stability index rises from 1.02 to 2.41.

Compared with S5F, S5Q is lower in protein stability index: 4.07 for the first, 2.62 for the second.

Compared with R2P, K9D is higher in protein stability index: 2.76 for the first, 3.59 for the second.

Compared with K9C, L18A is lower in protein stability index: 2.14 for the first, 1.41 for the second.

First: K12A
Second: K12S
The protein stability index of the first is higher: 3.77 for the first, 2.06 for the second.

Going from K12D to R10D, the protein stability index rises from 1.41 to 2.02.

First: K8T
Second: K8E
The protein stability index of the first is lower: 2.64 for the first, 3.52 for the second.

Compared with P6H, P6L is higher in protein stability index: 2.4 for the first, 2.45 for the second.

Going from P6N to T1E, the protein stability index rises from 1.9 to 2.17.

Compared with T1S, T1A is lower in protein stability index: 3.96 for the first, 1.51 for the second.

Going from G7M to G7P, the protein stability index falls from 3.1 to 1.96.

First: G7A
Second: G7E
The protein stability index of the first is higher: 2.87 for the first, 1.97 for the second.

First: K3P
Second: K3S
The protein stability index of the first is higher: 2.52 for the first, 1.59 for the second.

First: L17K
Second: L17P
The protein stability index of the first is higher: 2.64 for the first, 1.5 for the second.

Compared with L24K, L24P is higher in protein stability index: 2.46 for the first, 2.63 for the second.

Going from C11S to C11L, the protein stability index rises from 1.4 to 2.46.

First: C11V
Second: C11E
The protein stability index of the first is lower: 1.4 for the first, 2.58 for the second.

Compared with C11P, L4N is lower in protein stability index: 2.26 for the first, 1.22 for the second.

Compared with L4Q, L4S is lower in protein stability index: 2.06 for the first, 1.47 for the second.

First: V19M
Second: V19Q
The protein stability index of the first is higher: 2.59 for the first, 2.26 for the second.

Variants of: B3
Assay: as above
Conditions: c terminus: a fixed tail appended

First: L18K
Second: L18H
The protein stability index of the first is lower: 2.1 for the first, 2.47 for the second.

Going from L18T to L18A, the protein stability index falls from 2.02 to 1.69.

Compared with L18S, L18R is higher in protein stability index: 2.04 for the first, 2.29 for the second.

Going from L18C to L18M, the protein stability index rises from 1.45 to 3.05.

Going from L18Q to L18Y, the protein stability index rises from 2.2 to 3.82.

Going from L18P to L18D, the protein stability index falls from 3.73 to 3.68.

First: E15H
Second: E15N
The protein stability index of the first is higher: 4.01 for the first, 2.52 for the second.

Variant E15P has a protein stability index of 1.05.
